Measurements as given in the nanobody polyreactivity screen of Harvey et al. (2022).

Assay: yeast display, Sf9 membrane polyspecificity reagent, FACS + sequencing; frameworks hold sequencing errors
How it was run: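 A synthetic nanobody library was expressed on Saccharomyces cerevisiae BJ5465 by galactose induction for 36–48 hours. The library was stained for 1 hour at 4 °C with 10% biotinylated, detergent-solubilized Sf9 membrane reagent and enriched with streptavidin microbeads before FACS. Low and high (top ~1%) gates were set on anti-HA fluorescence for expression and streptavidin fluorescence for reagent binding, and each polyreactivity label reflects the gate of origin.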

Row | Sequence | polyreactivity (PSR sort gate)
1 | QVQLVESGGGLVQAGGSLRLSCAASGRTFRTNTMGWYRQAPGKERELVAAIRYIGGSTYYADSVKGRFTISRDNAKNTFYLLMNSLKPEDTAVYYCAAYRYGSRYGYEYWGQGTQVTVSS | high polyreactivity
2 | QVQLVESGGGLVQAGGSLRLSCAASGRTFRVNAMGWYRQAPGKERELVAAITWRGGSTYYADSVKGRFTISRDNAKNTVYLQMNSLKPEDTAVYYCAARYSSSSRRQKSDYWGQGTQVTVSS | high polyreactivity
3 | QVQLVESGGGLVQAGGSLRLSCAASGRTFRVYAMGWDRQAPGKERELVAAISGRGGSTYYADSVKGRFSISRDNAMNTVYLQMNSLKPEDTAVDYCAKSNPYLRLGEGNYWGQGTQVTVSS | high polyreactivity
4 | QVQLVESGGGLVQAGGSLRLSCAASGRTFRVYAMGWYRQAPGKEREFVAAISYSGGRTNYADSVKGRFTISRDNAKNTVYLQMNSLKPEDTAVYYCARTKQEYTFGQFYLGDYWGQGTQVTVSS | low polyreactivity
5 | QVQLVESGGGLVQAGGSLRLSCAASGRTFRVYTMGWYRQAPGKERELVAAISSRGGSTYYADSVKGRFTISRDNAKNTVYLQMNSLKPEDTAVYYCAAVSYYPARYGYWGQGTQVTVSS | high polyreactivity
6 | QVQLVESGGGLVQAGGSLRLSCAASGRTFRWYAMGWDRQAPGKERELVAAISQSGGSTYYADSVKGRFTISRDNAKNTVYLQMNSLKPEDTAVYYCNAYPPYGGYAYGRGDYWGQGTQVTVSS | high polyreactivity
7 | QVQLVESGGGLVQAGGSLRLSCAASGRTFRWYAMGWYRQAPGKERELVAAISSSGTRTYYADSVKGRFTISRDNAKNTVYLQMNSLKPEDTAVYYCAATWRVGYDYWGQGTQVTVSS | high polyreactivity
8 | QVQLVESGGGLVQAGGSLRLSCAASGRTFRWYAMGWYRQAPGKERELVASITWSGGSTYYADSVKGRFTISRDNAKNTVYLQMNSLKPEDTAVYYCAARDRRGAYYYWGQGTQVTVSS | high polyreactivity
9 | QVQLVESGGGLVQAGGSLRLSCAASGRTFRWYAMGWYRQAPGKESELVASISRGGSTSYADSVKGRFTISRDNAKNTVYLQMNSLKPEDTAVYYCAAGGFARTISYYWGQGTQVTVSS | high polyreactivity
10 | QVQLVESGGGLVQAGGSLRLSCAASGRTFRWYTMGWYRQAPGKEREFVAAITWSGSSTDYADSVKGRFTISRDNAKNTVYLQMNSLKPEDTAVYYCAAENRRSRDDYWGQGTQVTVSS | high polyreactivity
11 | QVQLVESGGGLVQAGGSLRLSCAASGRTFRYNAMGWYLQAPGKERELVAAITRRDGRTYYADSVKGRFTISRDNAKNTVYLQMNSLKPEDTAVYYCGVEYWVVNAQGYDYWGQGTQVTVSS | high polyreactivity
12 | QVQLVESGGGLVQAGGSLRLSCAASGRTFRYNAMGWYRQAPGKERELVAAINWNGGSTYYADSVKGRFTISRDNAKNTVYLQMNSLKPEDTAVYYCAAYPGHGVTYWDRYYYWGQGTQVTVSS | high polyreactivity
13 | QVQLVESGGGLVQAGGSLRLSCAASGRTFRYNAMGWYRQAPGKERELVAAISRSGGRTYYADSVKGRFTISRDNAKNTVYLQMNSLKPEDTAVYYCAAYYYTAGDSSSRYDYWGQGTQVTVSS | high polyreactivity
14 | QVQLVESGGGLVQAGGSLRLSCAASGRTFRYNAMGWYRQAPGKERELVAVINSNGGSTYYADSVKGRFTISRDNAKNTVYLQMNSLKPEDTAVYYCAADYLRIQEYDYWGQGTQVTVSS | low polyreactivity
15 | QVQLVESGGGLVQAGGSLRLSCAASGRTFRYNDRGWYRQAPGKERELVASISRISGSTYYADSVKGRFTISRDNAKNTVYLQMNSLKAEVTAVFYCAATVKLKQYPYFGFGYWGQGTQVTVSS | high polyreactivity
16 | QVQLVESGGGLVQAGGSLRLSCAASGRTFRYNTMGWYRQAPGKERELVASISSGDRTYYADSVKGRFTISRDNAKNTVYLQMNSLKPEDTAVYYCAKDVGYWYYYWGQGTQVTVSS | high polyreactivity
